From patent US20090226370A1 come the findings set out here.

The target of this experiment is RFP-fused mouse full length COMP expressed in RCS cells (pDsRed1-N1-COMP) (mouse) (UniProt Q9R0G6). Kind of experiment: cell-based or functional assay.
UniProt Q9R0G6, sequence (Q9R0G6 20-755): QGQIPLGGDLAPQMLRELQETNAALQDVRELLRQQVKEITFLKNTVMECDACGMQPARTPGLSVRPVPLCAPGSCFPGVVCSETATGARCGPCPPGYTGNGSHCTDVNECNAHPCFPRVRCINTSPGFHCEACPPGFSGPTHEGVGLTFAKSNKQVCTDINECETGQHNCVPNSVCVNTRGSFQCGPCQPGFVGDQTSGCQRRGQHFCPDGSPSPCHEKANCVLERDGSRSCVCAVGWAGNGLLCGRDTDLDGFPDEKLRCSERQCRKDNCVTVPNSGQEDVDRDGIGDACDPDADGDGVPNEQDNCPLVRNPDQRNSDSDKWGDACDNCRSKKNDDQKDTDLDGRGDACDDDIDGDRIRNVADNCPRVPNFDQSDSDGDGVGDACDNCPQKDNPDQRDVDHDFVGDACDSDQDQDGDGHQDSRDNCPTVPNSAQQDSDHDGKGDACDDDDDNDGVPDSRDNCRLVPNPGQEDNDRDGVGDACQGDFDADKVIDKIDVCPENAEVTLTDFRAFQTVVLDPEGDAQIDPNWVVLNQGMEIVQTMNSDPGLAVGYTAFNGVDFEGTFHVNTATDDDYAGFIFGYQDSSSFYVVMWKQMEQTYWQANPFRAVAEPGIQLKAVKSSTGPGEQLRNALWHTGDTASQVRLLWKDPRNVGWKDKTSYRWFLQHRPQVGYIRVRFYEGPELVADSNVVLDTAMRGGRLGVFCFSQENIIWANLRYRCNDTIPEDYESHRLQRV

“GFP-linked GEP expressed in RCS cells (pEGFP-GEP) (ligand)”: the enhancement of GEP-mediated stimulation of RCS cell proliferation by coexpression of COMP, day 2 (viable cell count) turned out to be 2.3 fold; the enhancement of GEP-mediated stimulation of RCS cell proliferation by coexpression of COMP, day 3 (viable cell count) is 2.1 fold; the enhancement of GEP-mediated stimulation of RCS cell proliferation by coexpression of COMP, day 4 (viable cell count) is 1.7 fold; the enhancement of GEP-mediated stimulation of RCS cell proliferation by coexpression of COMP, day 5 (viable cell count) was found to be 1.5 fold.
